Literature values, collected in PMC5627252.
Like-named read-outs stand apart in the source and are kept apart here.

Legend:
[1] = biological target: FcγRIIIa (Homo sapiens) (UniProt P08637)
[2] = biological target: FcγRIIIa (Homo sapiens) (UniProt P08637); remark: listed apart in the source
[3] = biological target: FcγRIIIa (Homo sapiens) (UniProt P08637); remark: listed apart in the source

Chain of FcγRIIIa (Homo sapiens) (P08637 17-254): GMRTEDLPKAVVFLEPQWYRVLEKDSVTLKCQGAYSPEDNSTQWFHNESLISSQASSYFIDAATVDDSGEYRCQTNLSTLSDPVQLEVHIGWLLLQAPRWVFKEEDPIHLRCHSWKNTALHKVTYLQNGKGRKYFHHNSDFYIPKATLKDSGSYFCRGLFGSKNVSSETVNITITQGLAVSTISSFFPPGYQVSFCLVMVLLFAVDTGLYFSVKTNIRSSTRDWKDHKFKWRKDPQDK

**Q.** For IgG1 Fc-GlcNAc Fc (from UniProt P01857), which Kd [1] is on record?
**A.** 995 nM

**Q.** With IgG1 Fc-Man5 Fc (from UniProt P01857) as the substance, how does the Kd [2] read?
**A.** 32 nM

**Q.** Which Kd [3] does the source give for IgG1 Fc-Man8 Fc (from UniProt P01857) here?
**A.** 26 nM
